Molecular target: double mutant (E87C, C312T) AmtB protein complex from E. coli (E. coli) (UniProt P69681)
Test: native MS

stoichiometry N: 3
Substance: double mutant (E87C, C312T) AmtB protein complex from E. coli (from UniProt P69681 23-428) (natural protein)

From article PMC7641504
